Test results: patent US20110142842A1 (MEDINNOVA, published 2011)

Target: HLA-A*0201 (human, UniProt A*02:01)
Experiment: REVEAL MHC binding assay (ProImmune)

ILTALFLRV [Peptide ID 61 ILTALFLRV (TCR_TV)]
% Pass/fail control: 159 % of pass/fail control

HLLGPWLLL [Peptide ID 94 HLLGPWLLL (CD22)]
% Pass/fail control: 212 % of pass/fail control

RLYENRASL [Peptide ID 23 RLYENRASL (HA-1)]
% Pass/fail control: 266 % of pass/fail control

ELLDVSWLI [Peptide ID 74 ELLDVSWLI (TdT)]
% Pass/fail control: 220 % of pass/fail control

ILYPINILI [Peptide ID 48 ILYPINILI (CD11a)]
% Pass/fail control: 214 % of pass/fail control

SICEGTVEV [Peptide ID 59 SICEGTVEV (CD5)]
% Pass/fail control: 130 % of pass/fail control

TLQPPWVSV [Peptide ID 26 TLQPPWVSV (CD64)]
% Pass/fail control: 197 % of pass/fail control

LMIPAGIYA [Peptide ID 40 LMIPAGIYA (CD20)]
% Pass/fail control: 142 % of pass/fail control

YLKDGWHMV [Peptide ID 2 YLKDGWHMV (CD5)]
% Pass/fail control: 182 % of pass/fail control

VLIGILLLV [Peptide ID 35 VLIGILLLV (CD18)]
% Pass/fail control: 117 % of pass/fail control

GLADVAVGA [Peptide ID 64 GLADVAVGA (CD11a)]
% Pass/fail control: 206 % of pass/fail control

FLLLTISLL [Peptide ID 88 FLLLTISLL (CD52)]
% Pass/fail control: 302 % of pass/fail control

LLRTGGWKV [Peptide ID 39 LLRTGGWKV (CD19)]
% Pass/fail control: 124 % of pass/fail control

SMLDDLRNV [Peptide ID 24 SMLDDLRNV (CD18)]
% Pass/fail control: 251 % of pass/fail control

YLALGDQML [Peptide ID 91 YLALGDQML (CD50)]
% Pass/fail control: 197 % of pass/fail control

AIWLFIFNV [Peptide ID 80 AIWLFIFNV (CD19)]
% Pass/fail control: 199 % of pass/fail control

FIYGVILTA [Peptide ID 60 FIYGVILTA (TCR_TV)]
% Pass/fail control: 149 % of pass/fail control

SLWRRPFNV [Peptide ID 22 SLWRRPFNV (MPO)]
% Pass/fail control: 301 % of pass/fail control

VLQELNVTV [Peptide ID 34 VLQELNVTV (PR3)]
% Pass/fail control: 170 % of pass/fail control

FLQDTFPQQ [Peptide ID 70 FLQDTFPQQ (CD127)]
% Pass/fail control: 49.8 % of pass/fail control

VLFHNLPSL [Peptide ID 49 VLFHNLPSL (CD53)]
% Pass/fail control: 216 % of pass/fail control

LMGTLIAKV [Peptide ID 83 LMGTLIAKV (HA-1)]
% Pass/fail control: 316 % of pass/fail control

LLLTISLLV [Peptide ID 81 LLLTISLLV (CD52)]
% Pass/fail control: 250 % of pass/fail control

LLLSGAARA [Peptide ID 51 LLLSGAARA (PR3)]
% Pass/fail control: 178 % of pass/fail control

KMAEAYSEI [Peptide ID 46 KMAEAYSEI (TCR_TV)]
% Pass/fail control: 200 % of pass/fail control

YLIFCLCSL [Peptide ID 50 YLIFCLCSL (CD19)]
% Pass/fail control: 71.2 % of pass/fail control

KLLLALAGV [Peptide ID 67 KLLLALAGV (MPO)]
% Pass/fail control: 216 % of pass/fail control

ALAGVLAIL [Peptide ID 30 ALAGVLAIL (MPO)]
% Pass/fail control: 210 % of pass/fail control

FLDCQIHRV [Peptide ID 7 FLDCQIHRV (CD127)]
% Pass/fail control: 224 % of pass/fail control

YLMDLSYSM [Peptide ID 21 YLMDLSYSM (CD18)]
% Pass/fail control: 198 % of pass/fail control

GLLSPQAQV [Peptide ID 33 GLLSPQAQV (FLT3)]
% Pass/fail control: 170 % of pass/fail control

LLLTNTFGA [Peptide ID 92 LLLTNTFGA (CD11a)]
% Pass/fail control: 196 % of pass/fail control

DMKDSIWWV [Peptide ID 37 DMKDSIWWV (PU.1)]
% Pass/fail control: 131 % of pass/fail control

ALASVLLAL [Peptide ID 73 ALASVLLAL (PR3)]
% Pass/fail control: 139 % of pass/fail control

NLEEDAYWV [Peptide ID 57 NLEEDAYWV (CD11a)]
% Pass/fail control: 64.9 % of pass/fail control

EMDEELHYA [Peptide ID 54 EMDEELHYA (CD33)]
% Pass/fail control: 117 % of pass/fail control

GLYQGLSTA [Peptide ID 41 GLYQGLSTA (TCR_TV)]
% Pass/fail control: 107 % of pass/fail control

GLMATPAKL [Peptide ID 77 GLMATPAKL (MPO)]
% Pass/fail control: 218 % of pass/fail control

HLYGSNASL [Peptide ID 38 HLYGSNASL (CD11a)]
% Pass/fail control: 135 % of pass/fail control

VLLVVLLVV [Peptide ID 90 VLLVVLLVV (CD5)]
% Pass/fail control: 71.5 % of pass/fail control

WLQAQKVQV [Peptide ID 63 WLQAQKVQV (TdT)]
% Pass/fail control: 190 % of pass/fail control

FLLGLGLGV [Peptide ID 8 FLLGLGLGV (CD7)]
% Pass/fail control: 202 % of pass/fail control

YLRPGQAAA [Peptide ID 52 YLRPGQAAA (CD18)]
% Pass/fail control: 125 % of pass/fail control

KLMSPKLYV [Peptide ID 55 KLMSPKLYV (CD19)]
% Pass/fail control: 232 % of pass/fail control

SMEEAKQLV [Peptide ID 71 SMEEAKQLV (MPO)]
% Pass/fail control: 169 % of pass/fail control

ILFAFVSSV [Peptide ID 25 ILFAFVSSV (FLT3)]
% Pass/fail control: 221 % of pass/fail control

ALARGLPGA [Peptide ID 53 ALARGLPGA (CD7)]
% Pass/fail control: 215 % of pass/fail control

FLYIGIITI [Peptide ID 4 FLYIGIITI (CD53)]
% Pass/fail control: 136 % of pass/fail control

RLYQFLLDL [Peptide ID 66 RLYQFLLDL (PU.1)]
% Pass/fail control: 234 % of pass/fail control

GMGWAAFNL [Peptide ID 45 GMGWAAFNL (CD50)]
% Pass/fail control: 193 % of pass/fail control

VLLRWEEEL [Peptide ID 89 VLLRWEEEL (CD50)]
% Pass/fail control: 184 % of pass/fail control

KLFTSVFGV [Peptide ID 31 KLFTSVFGV (TdT)]
% Pass/fail control: 200 % of pass/fail control

LLAEVTLAI [Peptide ID 47 LLAEVTLAI (CD53)]
% Pass/fail control: 199 % of pass/fail control

LLWAGALAM [Peptide ID 86 LLWAGALAM (CD33)]
% Pass/fail control: 321 % of pass/fail control

LLLQVSSRV [Peptide ID 36 LLLQVSSRV (CD64)]
% Pass/fail control: 180 % of pass/fail control

IMSDSNYVV [Peptide ID 65 IMSDSNYVV (FLT3)]
% Pass/fail control: 220 % of pass/fail control

LLLLLIFIV [Peptide ID 58 LLLLLIFIV (CD11a)]
% Pass/fail control: 6.4 % of pass/fail control

YISRDTCIV [Peptide ID 69 YISRDTCIV (HA-2)]
% Pass/fail control: 133 % of pass/fail control

VLTPAQLNV [Peptide ID 44 VLTPAQLNV (MPO)]
% Pass/fail control: 175 % of pass/fail control

LLIHNNFGV [Peptide ID 42 LLIHNNFGV (CD53)]
% Pass/fail control: 191 % of pass/fail control

TLPQLFLKV [Peptide ID 72 TLPQLFLKV (FLT3)]
% Pass/fail control: 182 % of pass/fail control

YLGYTVTWL [Peptide ID 93 YLGYTVTWL (CD11a)]
% Pass/fail control: 239 % of pass/fail control

LLIILLAEV [Peptide ID 68 LLIILLAEV (CD53)]
% Pass/fail control: 99.2 % of pass/fail control

LLLPLLLAL [Peptide ID 28 LLLPLLLAL (CD7)]
% Pass/fail control: 253 % of pass/fail control

LIQPFMFRL [Peptide ID 84 LIQPFMFRL (MPO)]
% Pass/fail control: 311 % of pass/fail control

LLMSFFILL [Peptide ID 27 LLMSFFILL (CD53)]
% Pass/fail control: 189 % of pass/fail control

RLFEQVMRI [Peptide ID 43 RLFEQVMRI (MPO)]
% Pass/fail control: 192 % of pass/fail control

ILLWEIFSL [Peptide ID 3 ILLWEIFSL (FLT3)]
% Pass/fail control: 199 % of pass/fail control

SLHSETWEI [Peptide ID 32 SLHSETWEI (CD11a)]
% Pass/fail control: 179 % of pass/fail control

FMQPLFLVA [Peptide ID 62 FMQPLFLVA (HA-1)]
% Pass/fail control: 215 % of pass/fail control

LVAPRFLEV [Peptide ID 85 LVAPRFLEV (CD50)]
% Pass/fail control: 340 % of pass/fail control

LLSGFFFFA [Peptide ID 29 LLSGFFFFA (CD11a)]
% Pass/fail control: 210 % of pass/fail control

SMSEEVTYA [Peptide ID 56 SMSEEVTYA (CLL-1)]
% Pass/fail control: 158 % of pass/fail control

SLFEGIYTI [Peptide ID 6 SLFEGIYTI (FLT3)]
% Pass/fail control: 183 % of pass/fail control

YLAVGIMFL [Peptide ID 5 YLAVGIMFL (CD64)]
% Pass/fail control: 155 % of pass/fail control

LLEGNLVTL [Peptide ID 76 LLEGNLVTL (CD64)]
% Pass/fail control: 173 % of pass/fail control
